From patent US8071348B2, “Protein tyrosine phosphatase substrate-trapping double mutant and uses thereof” (Albert Einstein College of Medicine of Yeshiva University, priority 2002, dated 2011) come the findings set out here.

The labels stand for the following.
B1: Ac-Asp-Ala-Asp-Glu-F2Pmp-Leu-NH2 (peptide)
peptide: Ac-DADE[F2Pmp]L-NH2
notes: Synthetic hexapeptide printed in three-letter code; also called F2Pmp-containing peptide; non-hydrolyzable substrate analog
B2: C215S/Q262A: PTP1B double mutant, Cys215 to Ser and Gln262 to Ala (protein, UniProt P18031 1-435, looked up, variant C215S Q262A)
Tyrosine-protein phosphatase …: MEMEKEFEQIDKSGSWAAIYQDIRHEASDFPCRVAKLPKNKNRNRYRDVSPFDHSRIKLHQEDNDYINASLIKMEEAQRSYILTQGPLPNTCGHFWEMVWEQKSRGVVMLNRVMEKGSLKCAQYWPQKEEKEMIFEDTNLKLTLISEDIKSYYTVRQLELENLTTQETREILHFHYTTWPDFGVPESPASFLNFLFKVRESGSLSPEHGPVVVHSSAGIGRSGTFCLADTCLLLMDKRKDPSSVDIKKVLLEMRKFRMGLIATADQLRFSYLAVIEGAKFIMGDSSVQDQWKELSHEDLEPPPEHIPPPPRPPKRILEPHNGKCREFFPNHQWVKEETQEDKDCPIKEEKGSPLNAAPYGIESMSQDTEVRSRVVGGSLRGAQAASPAKGEPSLPEKDEDHALSYWKPFLVNMCVATVLTAGAYLCYRFLFNSNT
B3: PTP1B/D181A/C215S, catalytic domain (residues 1 to 321) (enzyme, human, UniProt P18031 1-321, looked up)
chain: MEMEKEFEQIDKSGSWAAIYQDIRHEASDFPCRVAKLPKNKNRNRYRDVSPFDHSRIKLHQEDNDYINASLIKMEEAQRSYILTQGPLPNTCGHFWEMVWEQKSRGVVMLNRVMEKGSLKCAQYWPQKEEKEMIFEDTNLKLTLISEDIKSYYTVRQLELENLTTQETREILHFHYTTWPAFGVPESPASFLNFLFKVRESGSLSPEHGPVVVHSSAGIGRSGTFCLADTCLLLMDKRKDPSSVDIKKVLLEMRKFRMGLIQTADQLRFSYLAVIEGAKFIMGDSSVQDQWKELSHEDLEPPPEHIPPPPRPPKRILEPHN

Series [1] deals with T1, PTP1B/D181A/C215E, catalytic domain (residues 1 to 321) (human, UniProt P18031 1-321).
T1 construct: range 1-321; Used in vitro (ITC)
T1 sequence (looked up): B3 chain with S215E
The experiment in a line: ITC, 25 C, pH 7.0. On the procedure: (§1) All isothermal titration calorimetry experiments were performed using an MCS Isothermal Titration Calorimetry System from Microcal Inc. (Northampton, Mass.). Experiments at pH 7.0 were conducted at 25° C., in 50 mM 3,3-dimethylglutarate buffer containing 1 mM DTT. The ionic strength of the buffer was adjusted to 0.15 M by addition of NaCl. Protein concentration in the calorimeter cell was 27-85 µM, while the ligand concentration in the syringe was 0.37-1 mM.
(§2) The PTP1B samples used in the isothermal titration calorimetry experiments were dialyzed completely against buffer. High-concentration stock solutions were prepared for ligands with distilled water, and adjusted to pH 7.0. […] Protein dilution during titration was determined by titration of buffer into the protein solution. […] The heat of ligand dilution was corrected by subtracting the average heat of injection after saturation.
(§3) A typical titration curve and binding isotherm for the binding of D181A/Q262A to Ac-Asp-Ala-Asp-Glu-F_2Pmp-Leu-NH_2 is shown in FIG. 3. From curve-fitting of the binding isotherms, the stoichiometry for the binding of the peptide to D181A/Q262A was determined to be 1:1.

Series [2] concerns the target T2, PTP1B/D181A/Q262A, catalytic domain (residues 1 to 321) (human, UniProt P18031 1-321).
T2 construct: range 1-321; Used in vitro (ITC, kinetics); also called PTP1B substrate-trapping double mutant
T2 sequence (looked up): B3 chain with S215C, Q262A
Kind of series: ITC, 25 C, pH 7.0. On the procedure:
as §1, §2, §3
Background: Isothermal titration calorimetry measures the heat released or taken up as one component is titrated into another.

Series [3] addresses T3, Ac-Asp-Ala-Asp-Glu-F2Pmp-Leu-NH2 (Homo sapiens, UniProt P18031, C215S/Q262A).
T3 construct: The catalytic domain of PTP1B (residues 1 to 321) was used for in vitro study; made in house; host or cells: E. coli (pT7-7 plasmids)
T3 sequence (P18031 1-321 C215S/Q262A): B3 chain with A181D, Q262A
Kind of series: Isothermal titration calorimetry, binding of PTP1B and mutants to F2Pmp peptide. Conditions: 25° C.; one peak absorbing heat, the other releasing heat. On the procedure: FIG. 3 portrays calorimetric isothermal titration for the reaction of peptide Ac-Asp-Ala-Asp-Glu-F2Pmp-Leu-NH2 with PTP1B/D181A/Q262A. The upper graph depicts raw data for thirty 8-μl injections of the peptide (0.5 mM stock) into the isothermal cell containing 32 μM PTP1B/D181A/Q262A, at 4-min intervals and 25° C. Both the protein and the peptide were in 50 mM 3,3-dimethylglutarate buffer (I=0.15 M, pH 7.0) containing 1 mM DTT. The lower graph depicts an integration curve showing experimental points that were obtained by integration of the above peaks as plotted against the molar ratio of the peptide to PTP1B/D181A/Q262A within the reaction cell. The solid line corresponds to the best fit to the data according to the nonlinear, least-squares regression algorithm, ORIGIN (29).
All isothermal titration calorimetry experiments were performed using an MCS Isothermal Titration Calorimetry System from Microcal Inc. (Northampton, Mass.). […] The ionic strength of the buffer was adjusted to 0.15 M by addition of NaCl. Protein concentration in the calorimeter cell was 27-85 μM, while the ligand concentration in the syringe was 0.37-1 mM.
The PTP1B samples used in the isothermal titration calorimetry experiments were dialyzed completely against buffer. High-concentration stock solutions were prepared for ligands with distilled water, and adjusted to pH 7.0. Stock was diluted at least 26-fold with 50 mM 3,3-dimethylglutarate buffer before titration. Protein dilution during titration was determined by titration of buffer into the protein solution. […] The heat of ligand dilution was corrected by subtracting the average heat of injection after saturation.
The binding data were analyzed using ORIGIN software (29). Binding constant, K, and enthalpy change, ΔH, were used to calculate free energy change, ΔG, and entropy change, ΔS, according to equation [1]: −RTLnK=ΔG=ΔH−TΔS [1] where R is the gas constant and T is the absolute temperature.

Series [4] deals with EGFR^988-998 peptide, DADEpYLIPQQG. The experiment in a line: Kinetic constants for PTP1B-catalyzed hydrolysis of pTyr-containing EGFR988-998 peptide. The format is biochemical. The note with it: EGFR988-998 peptide as substrate. From the text:
The catalytic domain of PTP1B (residues 1 to 321) was used for in vitro study. PTP1B mutants, C215S, D181A, and Q262A, were described previously (9, 25, 26). PTP1B double mutants, D181A/C215S and C215S/Q262A, were generated by PCR reactions, according to the standard procedure of the Quick-Change™ site-directed mutagenesis kit (Stratagene), using pT7-7/PTP1B/C215S as a template. PTP1B double mutants, D181A/C215E and D181A/Q262A, were generated by similar PCR procedures, using pT7-7/PTP1B/D181A as a template. The recombinant wild-type and mutant PTP1Bs were expressed in E. coli, and purified to homogeneity as described (25, 27). Protein concentration was determined from absorbance measurement at 280 nm, using an absorbance coefficient of 1.24 for 1 mg/ml PTP1B.
All assays were performed at 25° C. in buffer (pH 7.0, ionic strength=0.15 M) containing 50 mM 3,3-dimethylglutarate and 1 mM EDTA. A continuous spectrophotometric assay, previously described (28), was employed to determine kcat and Km for the pTyr-containing peptides. The dephosphorylation reaction was monitored by either an increase in absorbance at 282 nm, or an increase in fluorescence at 305 nm. Fluorometric and absorbance determinations were performed on a Perkin-Elmer LS50B fluorometer and a Perkin-Elmer Lambda 14 spectrophotometer, respectively. The instruments were equipped with a water-jacketed cell holder, permitting maintenance of the reaction mixture at the desired temperature (25° C.).

Another series has as its system EGF receptor. Kind of series: Substrate protection: EGF receptor tyrosine phosphorylation in COS1 cells expressing PTP1B forms (anti-pTyr Western blot). The format is cell-based, Monkey. The note with it: COS1 cell lysates, anti-pTyr immunoblot (FIG. 4). On the procedure:
FIG. 4 sets forth Western blots (WB) that show the level of tyrosine phosphorylation in the epidermal growth factor receptor (EGFR) upon expression of the wild-type and mutant PTP1Bs (4 μg plasmid/60 mm dish) in COS1 cells. Samples (50 μg total protein) were taken from the lysates of COS1 cells transfected with 4 μg of pJ3H plasmids expressing HA-tagged wild-type PTP1B, D181A, C215S, D181A/Q262A, or D181A/C215S. These samples were loaded into each lane for SDS-PAGE electrophoresis, and transferred onto a nitrocellulose membrane. The proteins on the membrane were first immunoblotted with anti-pTyr HRP conjugate (upper panel). The membrane was then stripped and re-probed with anti-hemagglutinin (anti-HA) HRP conjugate (lower panel).
The hemagglutinin-tagged (HA-tagged) full-length human wild-type PTP1B in pJ3H expression vector was a gift from Dr. Chemoff (30). The HA-tagged PTP1B mutants, C215S, D181A, D181A/C215S, and D181A/Q262A, were generated by PCR reactions, according to the standard procedure of the Quick-Change™ site-directed mutagenesis kit (Stratagene), using pJ3H-HA-PTP1B as a template. All mutations were verified by DNA sequencing.
Monkey kidney COS1 cells (ATCC: CRL-1650) were maintained in Dulbecco's modified Eagle's minimum essential medium (DMEM), supplemented with 10% fetal bovine serum (Life Technologies, Inc.), penicillin (50 units/ml), streptomycin (50 μg/ml), and L-glutamine (2 mM) under a humidified atmosphere containing 5% CO2. In transient transfection experiments, COS1 cells were inoculated at a density of 2×10^5 cells/60-mm dish, and grown overnight in DMEM containing 10% fetal bovine serum. Transfection was performed using LipoTAXI^R according to the manufacturer's recommendations (Stratagene, Cedar Creek, Tex.). Each transfection assay included 4 μg of purified DNA mixed with LipoTAXI^R in a 1:5 DNA:lipid ratio per 60-mm dish of cells. Following transfection, the cells were exchanged to normal culture medium, and maintained for 44 to 48 h at 37° C. and 5% CO2. The efficiency of transfection, as assessed by 5-bromo-4-chloro-3-indolyl-β-D galactoside (X-Gal) staining of pCMV-β-gal-transfected (β-Gal staining kit, Invitrogen) COS cells, was 25%.
The transfected cells (treated with or without EGF) were lysed with “lysis buffer” containing 50 mM Tris-HC1 (pH 7.5), 5 mM EDTA, 150 mM NaCl, 10 mM sodium phosphate, 10 mM sodium fluoride, 5 mM iodoacetic acid, 1 mM benzamidine, 1% Triton X-100, 10 μg/ml leupeptin, and 5 μg/ml Aprotinin. Lysate protein concentration was estimated using Bio-Rad protein assay reagent (Bio-Rad, Hercules, Calif.).
For immunoprecipitation, 1 mg of cell lysate was immunoprecipitated overnight with 30 μl of agarose-conjugated anti-hemagglutinin antibody at 4° C. Immunocomplexes were washed four times with the cell lysis buffer, and boiled for 5 min in SDS-PAGE sample buffer. Proteins in the cell lysate were separated by 8% SDS-PAGE under reducing conditions, according to the method of Laemmli (31), followed by blotting onto nitrocellulose membranes (Protran, Schleicher & Schuell). The nitrocellulose membranes were blocked with 5% non-fat dry milk in Tris-buffered saline/Tween (TBST) buffer (20 mM Tris-HC1, 150 mM NaCl, 0.1% Tween-20; pH 7.6) for 1 h at 25° C.
Thereafter, blots were incubated overnight with primary antibodies diluted in TBST containing 5% non-fat dry milk at 4° C. […]
(A western blot detects proteins with antibodies after separation by electrophoresis.)

The target of series [5] is B1. The experiment in a line: ITC; complex titration curve, no Kd obtained.

Residue numbers refer to the chain shown, from its start. Names and notes keep the numbering of the source. [ ]: non-standard residue; d: D form. F2Pmp = N[C@@H](Cc1ccc(C(F)(F)P(=O)(O)O)cc1)C(=O)O

For the molecule B1, the Kd in series [1] stood at 1300 nM; in series [2], 6.8 nM.
Regarding B2, the “shape of ITC titration curve” value in series [3] was “displayed two peaks”. Also, in series [4], the phosphatase activity result is reported as “no measurable activities”.
As to B3, the “level of pTyr in the EGF receptor / enhancement of EGF receptor phosphorylation” value in the series with EGF receptor is recorded as “comparable affinity to that of C215S”. For the same molecule, the binding stoichiometry in series [5] turned out to be 0.1. Also, the phosphatase activity entry in series [4] is “no measurable activities”.

What is called Kd is the free concentration of one partner at which half of the binding sites on the other are occupied at equilibrium, for simple one-to-one binding. Read a low Kd as higher affinity.
